# B1: human IgG1 chimeric DF366 antibody (DF366c) (antibody)
# heavy: not shown
# light: DIQMTQSPASLSASVGETVTITCRPSENIYNNLAWYQQKQGKSPQLLVYVATNLAEGVPSRFSGSGSGTRFSLKINSLQPEDFGKYYCQHSYGTPWTFGGGTKLEIKRTVAAPSVFIFPPSDEQLKSGTASVVCLLNNFYPREAKVQWKVDNALQSGNSQESVTEQDSKDSTYSLSSTLTLSKADYEKHKVYACEVTHQGLSSPVTKSFNRGEC
# notes: Mouse DF366 variable regions on human IgG1/kappa constant regions, made in CHO DG44 cells; The full-length entries may include a signal peptide; also called DF366c antibody
# B2: DF366 antibody (antibody, V domains shown)
# VH: EVQLQQSGPELVKPGASVKISCKASGYTFTDYNMDWVKQSHGESLEWIGYIYPNNGGSGYNQKFKSKATLTVDKSSSTAYMELHSLTSEDSAVYYCARRDSYYGFDMAWFAYWGQGTLVTVSA
# VL: DIQMTQSPASLSASVGETVTITCRPSENIYNNLAWYQQKQGKSPQLLVYVATNLAEGVPSRFSGSGSGTRFSLKINSLQPEDFGKYYCQHSYGTPWTFGGGTKLEIK
# notes: Mouse monoclonal antibody purified from hybridoma supernatant; also called anti-DSG3 antibody; anti-human desmoglein 3 antibody
# B3: mouse IgG2a chimeric DF366 antibody (DF366m) (antibody)
# heavy: EVQLQQSGPELVKPGASVKISCKASGYTFTDYNMDWVKQSHGESLEWIGYIYPNNGGSGYNQKFKSKATLTVDKSSSTAYMELHSLTSEDSAVYYCARRDSYYGFDMAWFAYWGQGTLVTVSAAKTTAPSVYPLAPVCGDTTGSSVTLGCLVKGYFPEPVTLTWNSGSLSSGVHTFPAVLQSDLYTLSSSVTVTSSTWPSQSITCNVAHPASSTKVDKKIEPRGPTIKPCPPCKCPAPNLLGGPSVFIFPPKIKDVLMISLSPIVTCVVVDVSEDDPDVQISWFVNNVEVHTAQTQTHREDYNSTLRVVSALPIQHQDWMSGKEFKCKVNNKDLPAPIERTISKPKGSVRAPQVYVLPPPEEEMTKKQVTLTCMVTDFMPEDIYVEWTNNGKTELNYKNTEPVLDSDGSYFMYSKLRVEKKNWVERNSYSCSVVHEGLHNHHTTKSFSRTPGK
# light: DIQMTQSPASLSASVGETVTITCRPSENIYNNLAWYQQKQGKSPQLLVYVATNLAEGVPSRFSGSGSGTRFSLKINSLQPEDFGKYYCQHSYGTPWTFGGGTKLEIKRADAAPTVSIFPPSSEQLTSGGASVVCFLNNFYPKDINVKWKIDGSERQNGVLNSWTDQDSKDSTYSMSSTLTLTKDEYERHNSYTCEATHKTSTSPIVKSFNRNEC
# notes: DF366 variable regions on mouse IgG2a/kappa constant regions, made in CHO DG44 cells; The full-length entries may include a signal peptide; also called DF366m antibody
# Legend:
# [1] = target: T1, human desmoglein 3 (DSG3) (human, UniProt P32926 50-999); assay: flow cytometry, 10 µg/mL antibody on DSG3-DG44 CHO cells
# T1 construct: Full-length DSG3 gene stably expressed on CHO DG44 cells (DSG3-DG44) for flow cytometry; also called DSG3-DG44 cells; DSG3-Ba/F3 cells
# T1 sequence: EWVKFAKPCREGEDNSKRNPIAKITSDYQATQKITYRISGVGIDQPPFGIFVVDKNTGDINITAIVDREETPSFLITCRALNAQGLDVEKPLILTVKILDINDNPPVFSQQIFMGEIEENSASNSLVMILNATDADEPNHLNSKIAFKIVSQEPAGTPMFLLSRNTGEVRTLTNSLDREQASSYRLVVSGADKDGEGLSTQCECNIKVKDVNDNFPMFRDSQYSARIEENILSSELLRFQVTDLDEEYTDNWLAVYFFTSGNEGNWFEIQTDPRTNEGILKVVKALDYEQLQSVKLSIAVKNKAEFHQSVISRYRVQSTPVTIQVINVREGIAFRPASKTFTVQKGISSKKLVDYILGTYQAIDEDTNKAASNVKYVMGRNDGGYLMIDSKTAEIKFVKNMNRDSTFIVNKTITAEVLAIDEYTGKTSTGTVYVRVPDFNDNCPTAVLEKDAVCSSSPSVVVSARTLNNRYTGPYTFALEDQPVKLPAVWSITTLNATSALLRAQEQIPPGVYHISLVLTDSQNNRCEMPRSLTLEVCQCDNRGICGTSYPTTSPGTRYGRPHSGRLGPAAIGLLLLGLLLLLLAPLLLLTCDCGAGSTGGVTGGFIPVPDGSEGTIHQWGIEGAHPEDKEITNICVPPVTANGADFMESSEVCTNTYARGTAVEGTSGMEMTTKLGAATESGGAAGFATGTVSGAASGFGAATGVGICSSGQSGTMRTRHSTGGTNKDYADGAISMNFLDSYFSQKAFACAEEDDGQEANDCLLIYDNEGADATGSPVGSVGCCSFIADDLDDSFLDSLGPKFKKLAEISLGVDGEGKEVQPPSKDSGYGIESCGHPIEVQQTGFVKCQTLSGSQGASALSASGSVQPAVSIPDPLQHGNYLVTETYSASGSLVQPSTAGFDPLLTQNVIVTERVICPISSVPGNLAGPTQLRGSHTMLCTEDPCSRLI
# Experimental: (§1) Binding of the DF366c antibody to DSG3-DG44 cells and DG44 cells was detected by flow cytometry. 3×10⁴ cells were reacted with 10 μg/mL of DF366c antibody on ice for one hour, and then washed. Then, this was reacted with an FITC-labeled anti-human IgG antibody (Beckman Coulter) as the secondary antibody on ice for one hour, washed, and then subjected to flow cytometry. FACS Calibur (Becton Dickinson) was used as the flow cytometer. DF366c antibody bound to DSG3-DG44 cells, but not to the parental DG44 cells. Therefore, the DF366c antibody was confirmed to bind specifically to DSG3.
# [2] = target: T1, human desmoglein 3 (DSG3); assay: flow cytometry screening on DSG3-DG44 cells
# Experimental: Binding of the DF366 antibody to DSG3-DG44 cells was detected by flow cytometry. 5×10⁴ cells of DSG3-DG44 was reacted with 3 μg/mL of DF366 antibody on ice for 30 minutes, and then washed. Then, this was reacted with an FITC-labeled anti-mouse IgG antibody (Beckman Coulter) as the secondary antibody on ice for 30 minutes, washed, and then subjected to flow cytometry. FACS Calibur (Becton Dickinson) was used as the flow cytometer. The DF366 antibody bound to DSG3-DG44 cells, but not to the parental DG44 cells. Therefore, the DF366 antibody was confirmed to bind specifically to DSG3.
# [3] = target: T1, human desmoglein 3 (DSG3); assay: flow cytometry, FITC anti-mouse IgG secondary antibody
# Experimental: as §1
# The pMCD/G2a-DF366 and pMCN/k-DF366 plasmids were introduced into DG44 cells by electroporation. The CHO DF366m-DG44 cells, which stably express the mouse IgG2a chimeric DF366 antibody (DF366m) were established by selection in a nucleic acid (HT supplement)-free medium containing 500 μg/mL of Geneticin. Subsequently, the DF366m antibody was purified from the culture supernatant of DF366m-DG44 using a Hi Trap Protein G HP column. The solvent was substituted with PBS using a PD-10 column. The concentration of the DF366m antibody purified was quantified using a DC Protein Assay kit. The DF366m antibody was subjected to flow cytometric analysis to confirm that the antibody specifically binds to DSG3 in the same way as the DF366c antibody. […]
binder,measurement,setting,value
B1,binding result,[1],binds
B2,binding result,[2],binds
B3,binding result,[3],binds
